Measured values published in patent publication US20190359687A1 (Bayer, published 2019).

T1: purified human glycophorin A protein (Sigma, cat # G5017) (human, UniProt P02724 20-150)
T1 construct: mature; also called Sigma hGPA; Sigma GPA
T1 sequence (looked up): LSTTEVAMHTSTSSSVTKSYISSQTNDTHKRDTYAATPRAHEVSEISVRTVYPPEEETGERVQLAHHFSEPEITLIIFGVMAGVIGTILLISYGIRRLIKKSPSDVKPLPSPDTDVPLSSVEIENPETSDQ

T2: human glycophorin A in the red blood cell membrane (human, UniProt P02724 20-150)
T2 construct: whole, on cells; used for intact RBC, isolated RBC membranes and transfected cells; the assay field tells which; also called GPA; hGPA
T2 sequence (looked up): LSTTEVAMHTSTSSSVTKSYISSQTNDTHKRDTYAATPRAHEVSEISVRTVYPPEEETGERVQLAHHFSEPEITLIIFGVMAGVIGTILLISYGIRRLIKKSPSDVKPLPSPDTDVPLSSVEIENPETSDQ

T3: Rhesus monkey glycophorin A on Rhesus monkey red blood cells (Rhesus monkey, UniProt A0A1D5Q349 20-150)
T3 construct: whole, on cells; also called Rhesus RBC; monkey GPA
T3 sequence: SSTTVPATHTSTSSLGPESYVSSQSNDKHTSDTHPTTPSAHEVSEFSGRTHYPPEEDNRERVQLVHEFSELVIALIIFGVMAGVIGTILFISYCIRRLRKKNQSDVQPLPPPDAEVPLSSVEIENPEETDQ


Columns and labels:
[1] = biological target: T1, purified human glycophorin A protein …; assay: ELISA, IgG
[2] = biological target: T4, Cynomolgus monkey glycophorin A on Cynomolgus monkey red blood cells (Cynomolgus monkey); assay: FACS, RBC Cy01
T4 construct: whole, on cells; also called Cyno RBC; Cyno GPA
Method: (§1) The binding of the humanized variants to intact red blood cells (RBC) from humans (Hu01 to 03; 3 individuals), Rhesus monkey (Rh01 to 03; 3 individuals) and Cynomolgus monkey (Cy01 to 02; 2 individuals) was measured by fluorescence activated cell sorting (FACS).

[3] = biological target: T4, Cynomolgus monkey glycophorin A on …; assay: FACS, RBC Cy02
Method: as §1

[4] = biological target: T2, human glycophorin A in the red blood …; assay: FACS, RBC Hu01
Method: as §1

[5] = biological target: T2, human glycophorin A in the red blood …; assay: FACS, RBC Hu02
Method: as §1

[6] = biological target: T2, human glycophorin A in the red blood …; assay: FACS, RBC Hu03
Method: as §1

[7] = biological target: T3, Rhesus monkey glycophorin A on Rhesus …; assay: FACS, RBC Rh01
Method: as §1

[8] = biological target: T3, Rhesus monkey glycophorin A on Rhesus …; assay: FACS, RBC Rh02
[9] = biological target: T3, Rhesus monkey glycophorin A on Rhesus …; assay: FACS, RBC Rh03
Method: as §1

Binder	EC50 [1]	fluorescence intensity [2]	fluorescence intensity [3]	fluorescence intensity [4]	fluorescence intensity [5]	fluorescence intensity [6]	fluorescence intensity [7]	fluorescence intensity [8]	fluorescence intensity [9]
Hu6C12-2 (antibody, V domains shown, IgG format; VH.1b + Vk.1) VH: EVQLVQSGAEVKKPGASVKVSCKASGYTFTTYTIHWVRQAPGQGLEWMGYINPSSDYTRYNPKFKDRVTMTTDTSTSTAYMELRSLRSDDTAVYYCATGTRDYWGQGTTVTVSS VL: DIQLTQSPSFLSASVGDRVTITCSAASSVSYIYWYQQKPGKAPKLLIYSTSTLPSGVPSRFSGSGSGTEFTLTISSLQPEDFATYYCHQRNSFPFTFGQGTKLEIK	8.65 nM	962	1030	897	603	716	1530	1400	1380
Hu6C12-3 (antibody, V domains shown, IgG format; VH.1c + Vk.1) VH: EVQLVQSGAEVKKPGASVKVSCKASGYTFTTYTIHWVRQAPGQGLEWMGYINPSSDYTRYNPKFKDRVTMTTDTSTSTAYMELRSLRSDDTAVYYCQTGTRDYWGQGTTVTVSS VL: DIQLTQSPSFLSASVGDRVTITCSAASSVSYIYWYQQKPGKAPKLLIYSTSTLPSGVPSRFSGSGSGTEFTLTISSLQPEDFATYYCHQRNSFPFTFGQGTKLEIK	2.17 nM	1120	1200	1070	739	862	1730	1600	1600
Hu6C12-7 (antibody, V domains shown, IgG format; VH.1g + Vk.1) VH: EVQLVQSGAEVKKPGASVKVSCKASGYTFTTYTIHWVRQAPGQGLEWIGYINPSSDYTRYNPKFKDRVTLTTDKSTSTAYMELRSLRSDDTAVYYCQTGTRDYWGQGTTVTVSS VL: DIQLTQSPSFLSASVGDRVTITCSAASSVSYIYWYQQKPGKAPKLLIYSTSTLPSGVPSRFSGSGSGTEFTLTISSLQPEDFATYYCHQRNSFPFTFGQGTKLEIK	1.78 nM	1360	1430	1230	945	1100	2060	1940	1920
Hu6C12-6 (antibody, V domains shown, IgG format; VH.1f + Vk.1) VH: EVQLVQSGAEVKKPGASVKVSCKASGYTFTTYTIHWVRQAPGQGLEWMGYINPSSDYTRYNPKFKDRVTLTTDTSTSTAYMELRSLRSDDTAVYYCQTGTRDYWGQGTTVTVSS VL: DIQLTQSPSFLSASVGDRVTITCSAASSVSYIYWYQQKPGKAPKLLIYSTSTLPSGVPSRFSGSGSGTEFTLTISSLQPEDFATYYCHQRNSFPFTFGQGTKLEIK	3.46 nM	1060	1100	909	634	786	1640	1520	1540
Hu6C12-5 (antibody, V domains shown, IgG format; VH.1e + Vk.1) VH: EVQLVQSGAEVKKPGASVKVSCKASGYTFTTYTIHWVRQAPGQGLEWMGYINPSSDYTRYNPKFKDRVTLTTDTSTSTAYMELRSLRSDDTAVYYCATGTRDYWGQGTTVTVSS VL: DIQLTQSPSFLSASVGDRVTITCSAASSVSYIYWYQQKPGKAPKLLIYSTSTLPSGVPSRFSGSGSGTEFTLTISSLQPEDFATYYCHQRNSFPFTFGQGTKLEIK	8.45 nM	1070	1140	921	625	758	1660	1550	1560

The next lines start with the values.

EC50 [1]	fluorescence intensity [2]	fluorescence intensity [3]	fluorescence intensity [4]	fluorescence intensity [5]	fluorescence intensity [6]	fluorescence intensity [7]	fluorescence intensity [8]	fluorescence intensity [9]	Binder
0.886 nM	991	1170	1570	1170	1330	1530	1490	1450	Hu6C12-22 (antibody, V domains shown, IgG format; VH.1e + Vk.1b) VH: EVQLVQSGAEVKKPGASVKVSCKASGYTFTTYTIHWVRQAPGQGLEWMGYINPSSDYTRYNPKFKDRVTLTTDTSTSTAYMELRSLRSDDTAVYYCATGTRDYWGQGTTVTVSS VL: DIQLTQSPSFLSASVGDRVTITCSAASSVSYIYWFQQKPGKAPKLLIYSTSTLPSGVPSRFSGSGSGTEYTLTISSLQPEDFATYYCHQRNSFPFTFGQGTKLEIK
0.876 nM	1040	1240	1630	1270	1440	1620	1510	1520	Hu6C12-19 (antibody, V domains shown, IgG format; VH.1b + Vk.1b) VH: EVQLVQSGAEVKKPGASVKVSCKASGYTFTTYTIHWVRQAPGQGLEWMGYINPSSDYTRYNPKFKDRVTMTTDTSTSTAYMELRSLRSDDTAVYYCATGTRDYWGQGTTVTVSS VL: DIQLTQSPSFLSASVGDRVTITCSAASSVSYIYWFQQKPGKAPKLLIYSTSTLPSGVPSRFSGSGSGTEYTLTISSLQPEDFATYYCHQRNSFPFTFGQGTKLEIK
0.374 nM	1140	1320	1680	1300	1460	1710	1680	1700	Hu6C12-23 (antibody, V domains shown, IgG format; VH.1f + Vk.1b) VH: EVQLVQSGAEVKKPGASVKVSCKASGYTFTTYTIHWVRQAPGQGLEWMGYINPSSDYTRYNPKFKDRVTLTTDTSTSTAYMELRSLRSDDTAVYYCQTGTRDYWGQGTTVTVSS VL: DIQLTQSPSFLSASVGDRVTITCSAASSVSYIYWFQQKPGKAPKLLIYSTSTLPSGVPSRFSGSGSGTEYTLTISSLQPEDFATYYCHQRNSFPFTFGQGTKLEIK
4.8 nM	1270	1360	895	637	786	2000	1860	1870	Hu6C12-16 (antibody, V domains shown, IgG format; VH.1g + Vk.1a) VH: EVQLVQSGAEVKKPGASVKVSCKASGYTFTTYTIHWVRQAPGQGLEWIGYINPSSDYTRYNPKFKDRVTLTTDKSTSTAYMELRSLRSDDTAVYYCQTGTRDYWGQGTTVTVSS VL: DIQLTQSPSFLSASVGDRVTITCSAASSVSYIYWYQQKPGKAPKLLIYSTSTLPSGVPSRFSGSGSGTEYTLTISSLQPEDFATYYCHQRNSFPFTFGQGTKLEIK
0.393 nM	1070	1250	1670	1300	1460	1670	1620	1550	Hu6C12-20 (antibody, V domains shown, IgG format; VH.1c + Vk.1b) VH: EVQLVQSGAEVKKPGASVKVSCKASGYTFTTYTIHWVRQAPGQGLEWMGYINPSSDYTRYNPKFKDRVTMTTDTSTSTAYMELRSLRSDDTAVYYCQTGTRDYWGQGTTVTVSS VL: DIQLTQSPSFLSASVGDRVTITCSAASSVSYIYWFQQKPGKAPKLLIYSTSTLPSGVPSRFSGSGSGTEYTLTISSLQPEDFATYYCHQRNSFPFTFGQGTKLEIK
